In the data set the target is T1, Crp1 (MSMEG_6189), C-terminal His6 (UniProt A0R5H1 1-224).
T1 sequence: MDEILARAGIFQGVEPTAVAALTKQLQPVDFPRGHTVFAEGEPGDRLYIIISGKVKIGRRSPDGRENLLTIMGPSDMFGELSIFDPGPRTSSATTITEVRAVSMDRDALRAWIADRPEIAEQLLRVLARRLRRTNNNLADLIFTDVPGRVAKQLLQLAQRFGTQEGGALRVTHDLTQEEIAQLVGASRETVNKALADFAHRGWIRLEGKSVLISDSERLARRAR
As to the kind of experiment: EMSA; 200 uM cAMP; binding virtually abolished; EMSA: 20 mM Tris-HCl pH 8.0, 100 mM NaCl, 2.5 mM MgCl2, 1 mM EDTA, 1 mM DTT, 50 ug/ml BSA, 10% glycerol, 25 C 20 min; footprinting: 20 mM Tris-HCl pH 8.0, 0.2 mM MgCl2, 2.1 mM KCl, 0.04 mM DTT, 11.1% glycerol, 25 C, 0.15-0.6 uM Crp1. To be noted: protein: recombinant; tags: C-terminal His6; chain copies: 2; label: none (SYBR Green stain); blunt. Background: A gel shift assay detects complexes by their altered migration in electrophoresis.

B1: M3 (CBS1+CBS2 mutant) 99-bp (dsDNA)
DNA 1: GCAGCGGGGTCAGGAAGCTCGGCGCCGCCTTCCCGACCGGCTTTTCATCGGCGCCTCCCCCCAGCTAACCTTTCGCGCTACCTGCGTCGATCTCCTGGC
DNA 2: GCCAGGAGATCGACGCAGGTAGCGCGAAAGGTTAGCTGGGGGGAGGCGCCGATGAAAAGCCGGTCGGGAAGGCGGCGCCGAGCTTCCTGACCCCGCTGC
Turning to B1, the binding result is “no binding”.

The values above are taken from PMC7739888, “Induction of the cydAB Operon Encoding the bd Quinol Oxidase Under Respiration-Inhibitory Conditions by the Major cAMP Receptor Protein MSMEG_6189 in Mycobacterium smegmatis”.
